Paper PMC4499140 (Nucleic Acids Research, 2015)

T1: Rv1222 (Mycobacterium tuberculosis H37Rv) (UniProt L0T905)
T1 sequence: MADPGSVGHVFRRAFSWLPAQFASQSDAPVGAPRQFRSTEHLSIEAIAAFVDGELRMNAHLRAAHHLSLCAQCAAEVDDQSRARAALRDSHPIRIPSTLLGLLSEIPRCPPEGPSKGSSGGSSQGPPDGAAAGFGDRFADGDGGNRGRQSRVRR

T2: Mycobacterium tuberculosis sigma factor A (Mycobacterium tuberculosis, UniProt P9WGI1 1-528)
T2 sequence: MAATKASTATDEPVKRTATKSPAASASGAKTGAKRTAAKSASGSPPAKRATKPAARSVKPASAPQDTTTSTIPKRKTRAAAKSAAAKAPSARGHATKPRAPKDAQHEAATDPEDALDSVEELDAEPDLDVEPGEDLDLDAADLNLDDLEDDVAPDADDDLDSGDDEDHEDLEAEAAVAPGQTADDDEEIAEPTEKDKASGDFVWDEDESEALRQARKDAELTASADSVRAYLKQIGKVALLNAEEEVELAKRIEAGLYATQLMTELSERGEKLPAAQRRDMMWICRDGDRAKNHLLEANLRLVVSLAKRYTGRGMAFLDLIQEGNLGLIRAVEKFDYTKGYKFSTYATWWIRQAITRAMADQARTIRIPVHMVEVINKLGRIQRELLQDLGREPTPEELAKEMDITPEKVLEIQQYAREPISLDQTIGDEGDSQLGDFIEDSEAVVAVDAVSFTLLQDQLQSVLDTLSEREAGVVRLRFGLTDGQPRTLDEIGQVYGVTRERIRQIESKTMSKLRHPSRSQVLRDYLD

T3: Mycobacterium tuberculosis sigma factor E (Mycobacterium tuberculosis, UniProt P9WGG7 1-257)
T3 sequence: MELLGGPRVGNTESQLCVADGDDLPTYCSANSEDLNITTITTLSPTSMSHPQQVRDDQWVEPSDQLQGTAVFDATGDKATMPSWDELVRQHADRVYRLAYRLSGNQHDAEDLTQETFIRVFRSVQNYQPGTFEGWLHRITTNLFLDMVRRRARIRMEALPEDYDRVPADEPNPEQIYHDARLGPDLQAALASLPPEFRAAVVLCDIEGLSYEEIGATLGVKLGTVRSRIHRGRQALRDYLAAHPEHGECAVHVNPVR

B1: Rv1222 of Mycobacterium tuberculosis, TMR labelled (natural protein)
chain: MADPGSVGHVFRRAFSWLPAQFASQSDAPVGAPRQFRSTEHLSIEAIAAFVDGELRMNAHLRAAHHLSLCAQCAAEVDDQSRARAALRDSHPIRIPSTLLGLLSEIPRCPPEGPSKGSSGGSSQGPPDGAAAGFGDRFADGDGGNRGRQSRVRR

What was measured:
[1] = target: T1, Rv1222 (Mycobacterium tuberculosis H37Rv); assay: fluorescence anisotropy
[2] = target: E. coli DNA polymerase (Klenow fragment) (E. coli, UniProt P00582 324-928); assay: fluorescence polarisation
[3] = target: T2, Mycobacterium tuberculosis sigma factor …; assay: fluorescence polarisation
[4] = target: T3, Mycobacterium tuberculosis sigma factor …; assay: fluorescence polarisation

Chain of E. coli DNA polymerase (Klenow fragment) (P00582 324-928): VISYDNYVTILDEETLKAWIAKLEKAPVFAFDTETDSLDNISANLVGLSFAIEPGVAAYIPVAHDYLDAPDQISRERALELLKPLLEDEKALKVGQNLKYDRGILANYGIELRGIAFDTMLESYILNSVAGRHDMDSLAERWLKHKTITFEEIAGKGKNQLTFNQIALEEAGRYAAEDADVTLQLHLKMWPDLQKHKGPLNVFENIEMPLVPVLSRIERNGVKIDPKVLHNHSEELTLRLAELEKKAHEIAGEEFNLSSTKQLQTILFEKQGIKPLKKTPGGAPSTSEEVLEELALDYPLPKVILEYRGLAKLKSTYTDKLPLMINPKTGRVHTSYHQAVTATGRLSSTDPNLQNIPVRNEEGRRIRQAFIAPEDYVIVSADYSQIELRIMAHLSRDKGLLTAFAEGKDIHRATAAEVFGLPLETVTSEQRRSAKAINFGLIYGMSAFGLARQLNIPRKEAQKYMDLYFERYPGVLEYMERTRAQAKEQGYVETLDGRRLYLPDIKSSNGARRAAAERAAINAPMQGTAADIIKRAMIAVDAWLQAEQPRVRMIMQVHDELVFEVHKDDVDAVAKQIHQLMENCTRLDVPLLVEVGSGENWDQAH

Molecule	Kd [1]	Kd [2]	Kd [3]	Kd [4]
GTGAGTATCTCGCAGTCCGACGCGTCGTTGGCCGCCGTCCCCGCCGTGGATCAGTTCGATCCGTCGTCAGGTGCATCAGGTGGCTACGACACCCCGCTGGGCATCACCAATCCGCCCATCGACGAGTTGCTGGACCGCGTCTCGAGCAAATACGCCCTCGTGATCTATGCGGCAAAGCGTGCCCGGCAGATCAACGACTACTACAACCAGCTTGGCGAGGGCATCCTCGAATATGTCGGTCCGCTGGTTGAGCCGGGGTTGCAAGAGAAGCCGTTGTCCATCGCGTTGCGCGAGATCCACGCCGATCTGCTCGAGCACACCGAGGGCGAGTAG (double strand) [promoterless DNA fragment]	52 nM			
B1		245 ± 78 nM	~690 nM	~270 nM
